# Reference: the nanobody polyreactivity screen of Harvey et al. (2022)
# Assay: yeast display, Sf9 membrane polyspecificity reagent, FACS + sequencing; frameworks hold sequencing errors
# Method in brief: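 Genes from sorted yeast were amplified by colony PCR, read by MiSeq 2 × 250 sequencing and filtered on CDR length. These cells carried a synthetic nanobody library in Saccharomyces cerevisiae BJ5465 and were sorted by FACS into low and high (top ~1%) gates on anti-HA and streptavidin fluorescence. Polyreactivity is labelled according to the gate of origin.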
row,Sequence,polyreactivity (PSR sort gate)
1,QVQHVESGGGLVQAGGSLRISCAASGFISTGNAMGWSRQAPGKERELVAAITTGGSTYYADSVKGRFTISRDNAKNTVYLQMNSLKPEDTAVYYCNAVYVWWDGWGLYYWGQGTQGTVSS,low polyreactivity
2,QVQLVESGGGLVQAGGSLRLSCAASGFTFYYYAMGWYRQAPGTEMELVAALSRSGVRTYYADSVNGRFTISRDNGKNTVYLQMTSLKPEDTAVYYCAAEFARSRMNYWGQGTKVTVSS,high polyreactivity
3,QVQLVESGGGLVHAGGSLRLSCDASGIIFFIYTMGWYRQAPGKERELVAVITRGGRTNYADSVKGRFTISRDNAKNTVYLQMNSLKPEDTAVYYCAAKGSRSYYWGQGTQVNVSS,high polyreactivity
4,QVQLVESGGGLVQAGGSLRLSCAASGYILYPYAMGWYRQAPGKERELVAAIRQRGGSTYYADSVKGRFTISRDYAKNTVYLQMNSLKPEDTAVYYCAAYLSPKRALTRGYGYWGQGTQVTVSS,high polyreactivity
5,QVQLVESGGGLVQAGGSLRLSCAASGLTFKLYVMGWYRQAPGKERELVAAISGGGSTYYADSVKGRFTISRDNAKNTVYLQMNSLKPEDTAVYYCAAVRYFEYEYWGQGTQVTVSS,low polyreactivity
6,QVQLVESGGGLVQAGGILRLSCAASGSTFDYNTMGWYRQAPGKERELVAAISESGGSTYYADSVKGRFTISRDNAKNTVYLQMNSLKPEDTAVYYCATDDFGGYFGEYDYWGQGTQVTVSS,low polyreactivity
7,QVQLVESGGGLVQAGGSLRLSCAASGRIFRAYAMGWYRQAPGKERELVASISRSGGSTYYADSVKGRFTISRDNSKNTVYLQMYSLKPEDTAVYYCAAVQPVGLYPRTKYYYCGQGTQVTVSS,high polyreactivity
8,QVQLVESGGGLVQAGGSLRLSCAASGSTFLVYAMGWYRQAPGKERELVAAITRRSTSTFYADSVKGRFTISRVNAKNTVYLQMNSLKPEDTAVYYWAADTRFISRENYWGQGTQVTVSS,high polyreactivity
9,QVKLVESGGGLVQAGGSLRLSCAASGFTFSGYDMGWYRQAPGKERELVAGISSGGVSTTYADSVKGRFTISRDNAKNTVYLQMNSLIPEDTAVYYCNAEWTSFDWGQGTQVTVSS,low polyreactivity
10,QVQLVESGGGLVQAGGSLRLSCAASGYTFYFYAMGWSRQAPGKEREFVAAIRSSGGRTYYADSVKGRFTISRDNAKNNVYLQMNSLKPEDTAVYYCAAAGYYYSVDGAGPRYDYWGQGTQVTVSS,low polyreactivity
11,QVQLVESGGGLVQAGGSLRLSCAASGSTFKAYAMGWYRQAPGKQRELVAAITKSGGRTYYADSVKGRFTISRDNAKNTVYLQMNSLKPEDTAVYYCAAVFRPDSSAYRYYYWGQGTQVTVSS,high polyreactivity
12,QVQLVESGGGLVQAGGSLRLSCAASGRTFVRNTMGWYRQAPGKERELVAAISGGGSTYYADSVKGRFTISSDNAKKTVYLQMNSLKPEDTAVYYCAATTRRQGGKRFDYWGQGTQVTVSS,high polyreactivity
13,QVQLVESGGGLVQAGGSLRLSCAASGIIFKNYAMGWYRQAPGKERELVAAISWRGGRTYYADSVKGRFTISRDNAKNTVYLQMNSLIPEDTAVYYCAKELYVSYRGGPWVDYWGQGTQVTVSS,high polyreactivity
14,QVQLVESGGGLVQAGGSLRLSCAASGRIFVPNAMGWYRPPPGKERELVAAINWGGGSTYYADSVKGRFTISRDNAKNTVYLQMNSLKPEDTAVYYCAADHPYTIGVLPNQQFDYWGQGTQVTVSS,low polyreactivity
15,QVQLVESGGGLVQAGGSLRLSCSASGFIFWYNAMGWYRQAPGKERELVAAITTAGSTNYADSVKGRFTISRDNAKNTVYLQMNSLKPEDTAVFYCNKVQLRNRYPYRYGFGDVGYWGQGTQVTVSS,low polyreactivity
16,QVQLVESGGGLVQAGGSLSLSCAASGRIFYGYAMGWYRLAPGKERELVAAIRTSGGSTYYADSVKGRFTISRDNAKNTVYLQMNSLKPEDTAVYYCNAGIVPRNRYYTPYNYWGQGTQVTVSS,low polyreactivity
17,QVQLVESGGGLVQAGGSLRLSCAASGRIFQQNGMGWYRQAPGKERELVAGINSGVGTNYADSVKGRFTISRDNAKNTVYLQRNSLKPEDTAVYYCAKSQPSYSGDRDYWGPGTQVTVSS,low polyreactivity
18,QVQLVESGGGLVQAGGSLRLSCAASGRIFPYYAMGWYRQAPGKERELVAAISLSGGSTYYADSVKGRFTISRDNAKNTVYLQMNSLKPEDTAVYYCNAVASTYGYYWYPGLGYDYWGQGTQVTVSS,low polyreactivity
19,QVQHVESGGGLVQAGGSLRLSCAASGRTITNYVMGWYRQSPGKEREFVATITARGGSTNYADSVKGRFTISRDNAKNTVYLQMNSLKPEDTAVYYCAAGRRFTVAYGYFYWGQGTQVTVSS,high polyreactivity
20,QVQLVESGGGLVQAGGSLRLSCAASGSTFYYNTMGWYRQAPGKERELVAAISSSGGTTYYADSVKGRFTISRDNAKNTVYLQMNSLKPEDTAVYYCNVATIWYSYARGYGYWGQGTQVTVSS,high polyreactivity

row,Sequence,polyreactivity (PSR sort gate)
1,QVQLVESGGGLVQAGGSLRLSCAASGRTFCIYAMGWYIQAPGKEREFVAAISSSGGGTYYADSVKGRFTISRDNAKNTVYLQMNSLKPEDTAVYYCAADDGYSSNEYDYWGQGTQVTVSS,low polyreactivity
2,QLQLVESGGGLVQAGGSLRLSCAASGFIFDSYAMGWYRQAPGKERELVAAISWSGSSTYYADSVKGRFTISRDNAKNTVFLQMNSLKPEDTAVYYCGALVYPYWGGSMYYWGQGTQVTVSS,high polyreactivity
3,QFQLVESGGGLVQAGGSLGLSCAASGRSFAQYTMGWYRQAPGKERELVAAISWSGTSTYYADSVKGRFTISRDNAKNTVSLQMNSLKPEDTAVYYCAALGRYSVEYGYWGQGTQVTVSS,high polyreactivity
4,QVQLVESGGGLVQAGGSLRLSCAASGRIFYPYVMGWYRQAPGKERELVAAISDSTGSTYYADSVKGRFTISRDNAKNTVYLQMNSLKPEDTAVYYCAAGWFYATYWRFYYWGQGTLVTVSS,low polyreactivity
5,QVQLVESGGGLVQAGGSLRLSCAASGSTFDENAMGWYRQAPGKERELVAVISDSGGSTYYADSVKGRFTISRDYAKNTVYFQMNSLKPEDTAVYYCAKDVPPEYPTSSYDYWGQGSQVTVSS,low polyreactivity
6,QVQLGESGGGLVQAGGSLRLSCAASGRNFSTYTMGWYRQATWKERELVASISWSGVRTRYADSVKGRFTISRDNAKNTVYLQMNSLKPEDTAVYYCAAVVPYYYRSPSNHMGYWGQGTQVTVSS,high polyreactivity
7,QVQLVESGGGLVQAGGSLRLSCAASGSTLTRNTMGWYRQAPGKERELVATITRSGGSTYYADSVKGRFTISRDNAKNTVYLQMNSLKPEDTAVYYCAKRGRLRNYDYWGQGTQVTVSS,high polyreactivity
8,QVQLVESGGGLVQAGGSLRLSCAASGRTFASYTMGWYRQPPGKESELVAAINARGGNTYYADSVKGRFTISRDNAKNTVYLQMNSLKPEDTAVYYCAARQKRFKVAAGYDYWGQGTQVTVSS,high polyreactivity
9,QVKLVDSGGGLVQAGGSLRLSCAASGFIFYSYDMGWYRQAPGKERELVATITSGDDTYYADSVKGRFTISRDNAKNTVYLQMNSQKPEDTAVGYWGQGTQVTVSS,low polyreactivity
10,QVQLGESGGGLVQAGGSLRLSCAASGSTFIDYAMGWYRQAPGKERELVAAITNGGNTKYADSVKGRFTISRDNAKNTVYLQMNSLKPEDTAVYYCAKYYYTSIVGYDSWGQGTQVTVSS,low polyreactivity
11,QVQLVESGGGLVQAGGSLRLSCAASGNTFVDYAMGWYRQAPGKERELVAAISDGGSTNYADSVKGRFTISRDNAKNTVYLQMNSLKPEDTAVYYCAKDELYIPGVWPYYEYDYWGQGTQLTVSS,low polyreactivity
12,QVQLVESGGGLVEAGGSLRLSCAASGYIFKSYVMGWYRQAPGTERELVAAITWSGGSTYYADSVNGRFTISRDNAKNTVYLQMNSLNPEDTAVYYCAAYPRRYRTTYDYWGQGTQVTVSS,high polyreactivity
13,QVQLVESGGGLVQAGGSLRLSCAASARIFIVNAMGWYRQAPGKDREFVAANTSRGGITYYADSVKGRFTISRDNAKNTVYLQMNSLKPEDTAVYYCAAGYITCGSGNWVVTPYDYWGQGTQVTVSS,high polyreactivity
14,QVQLVESGGGLVQAGGSLRLSCAASGGIFYFYAMGWYRQAPGKERELVAVITWSGGRTRYADSVKGRFTISRDNAKNTVYLQMNSLKPEDTAVYYCATYGVNPPGVEEYNYWGQGTQVTVSS,high polyreactivity
15,QVQLVESGGGLVQAGGSLRLSCAASGSTFYAYAMGWYRQAPGKERELVARIRWRGGRTYYADSVKGRFTISRDNAKNTVYLRMNSLKPEDTAVYYCNRGYYSYYGRYYYWGQGTQVTVSS,high polyreactivity
16,QVQLVESGGGLVQAGGSLRLSCAASGSTFGPYAMGWYRQAPGKERELVAAIRSDGGTYYADSVKGRFTISRDNAKNTVYLQMNSLKPEDTAVYYCATRPINSYYDHDSWGQGTQVTVSS,high polyreactivity
17,QVQHVESGGGLVQAGGSLRLSCAASGTTFYSYAMGWYRQAPGKERELVAAISWRTSSTYYADSVKGRFTISRDNAKNTVYLQMNSLKPEDTAVYYCAAETWLGSWRQVGMDYWGQGTQVTVSS,high polyreactivity
18,QVHLVESGGGLVQAGGSLRLSCAASGTIYYVYSMVWYRQAPGKERELVASINKSGGSTYYADSVKWRFTISRDNAKNTVYLQMNSLKREDTAVYYCAARTGWPRVGFQYPAHVGFDYWGQGTQVTVSS,low polyreactivity
19,QVQLVESGGGLVQAGGSLRLSCAASGFTLRLNAMGWYRQAPGKARELVAAITRSGGNTYYADSVKGRFTISRDNAKNTVYLEMNSLKPEDSAVYYCAVRQLDRRSPKYNYWGQGTQVTVSS,high polyreactivity
20,QVQLVESGGGLVQAGGSLRLSCAASGSTLVVNGMGWYRQAPGKERELVASISSDGSTNYADSVKGRFTISRDNAKNTVYLQMNSLKPEDTAVYYCAADEGTGQASLSSNLYDYWGQGTQVTVSS,low polyreactivity
